Residue numbers refer to the chain shown, from its start.
B1: TCN-552 (5249_I23) (antibody, V domains shown)
VH: QVQVVQSGAEVKKPGSSVRVSCQASGGTFMNYAIIWVRRAPGQGLEWMGGIIPVFPTPNYAQMFQGRVTISTDESRSTSFLELTNLRYEDTAVYYCARRIYHGGNSGFDFWGQGTLVTVSS
VL: EIVLTQSPATLSLSPGERATLSCRASQSVGNYLAWYQQKPGQAPRLLIYDSSNRAPGIPARFSGSGSGTDFTLTISSLAPEDFAVYYCQQRSKWPPMYSFGHGTKLEIK
B2: TCN-553 (5261_C18) (antibody, V domains shown)
VH: QVQVVQSGTEVKKPGSSVKVSCQTSGGRFMSYAITWVRQAPGQGLEWMGGIVPVFGTANYAQKFQGRVTITTDDSTRTAYMELSSLRSEDTAVYYCGFRYGSGYGFDSWGQGTLVTVSS
VL: EIVLTQSPGTLSLSPGERATLSCRASQSVSSSYLAWYQKKPGQAPRLLIYGASTRATGIPDRFTGSGSGTDFTLSISRLEPEDFAVYYCQHFGTSVFTFGGGTKVEIK
B3: TCN-555 (5246_L16) (antibody, V domains shown)
VH: QVQLVQSGAEVKRPGSSVKVSCTASGGIFRKNAISWVRQAPGQGLEWMGGIIAVFNTANYAQKFQNRVKITADESGNTAYMELSSLTSDDTAVYYCASHPKYFYGSGSYPDFWGQGTLVTVSS
VL: QSALTQPRSVSGSPGQSITISCTGGSSDIGASNSVSWYQQHPGKAPKLVIFDVTERPSGVPHRFSGSKSGNTASLTVSGLQPDDEADYFCCAYGGKYLVVFGGGTKVTVL
B4: TCN-563 (5237_B21) (antibody, V domains shown)
VH: B3 VH with V5A, N66G, T87R
VL: B3 VL with I18V, G25S, I29V, F51Y, D83E
B5: TCN-550 (5096_F06) (antibody, V domains shown)
VH: QVQLQESGPGLVKPSETLSLTCTVSGASINSHYWSWIRQPPGKGLEWIGYVYYSGSTTYNPSLKSRVTLSVDTSKNQFSLNLSSVTAADTAFYYCARHPYDVLTGSGDWFDPWGQGTLVTVSS
VL: SYVLTQAPSVSVAPGQTARITCGGNAIGSKKVHWYQHKAGQAPVLVVYDDTDRPSGIPERFSGSNSWSTATLTINRVEAGDEADYYCQVWDFTIDHVVFGGGTKLTVL
B6: TCN-557 (5081_A04) (antibody, V domains shown)
VH: QVQLVQSGAEVKKPGASVKVSCKASGHTFTGYYIHWVRQAPGQGLEWMGWINPDSGATSSAQNFQGRVTMTGDTSSSTAYMELSRLSFDDTAVYYCARVLFTSPFDFWGEGTLVTVSS
VL: QAVVTQEPSLAVSPGGTVTLTCGSSTGAVTRGHYPYWFQQKPGQAPRALIYDSAGNRHSWTPARFSGSLLGGKAALTLSGAQPEDEAEYYCLLSYSGVWVFGGGTKLTVL

These binders were tested against T1, recombinant soluble homotrimeric HA of A/Egypt/3300-NAMRU3/08 (H5N1) (Influenza A virus A/Egypt/3300-NAMRU3/2008(H5N1)) (assay: HA microarray, BCC supernatant). Conditions: remark: other sources report otherwise.

Row | Binder | Trimeric HA Binding: RLU
1 | B1 | 40000 RLU
2 | B2 | 18800 RLU
3 | B3 | 42700 RLU
4 | B4 | 27500 RLU

What follows are binders tested against recombinant soluble homotrimeric HA, A/Anhui/1/05 H5N1 (Influenza A virus A/Anhui/1/2005(H5N1)) (assay: microarray, transfection SN IgG, trimeric HA). Conditions: remark: other sources report otherwise.

Row | Binder | Trimeric HA Binding: RLU
5 | B5 | 7680 RLU
6 | B1 | 9010 RLU
7 | B2 | 8550 RLU
8 | B3 | 12200 RLU
9 | B6 | 20000 RLU

The binders below were run against recombinant soluble homotrimeric HA, A/California/4/09 H1N1 (Influenza A virus A/California/04/2009(H1N1)) (assay: microarray, transfection SN IgG, trimeric HA). Conditions: remark: other sources report otherwise.

Row | Binder | Trimeric HA Binding: RLU
10 | B5 | 628 RLU
11 | B1 | 23500 RLU
12 | B2 | 23300 RLU
13 | B3 | 20200 RLU
14 | B6 | 44400 RLU

Each binder was assayed against recombinant soluble homotrimeric HA, A/Egypt/3300-NAMRU3/08 H5N1 (Influenza A virus A/Egypt/3300-NAMRU3/2008(H5N1)) (assay: microarray, transfection SN IgG, trimeric HA). Conditions: remark: other sources report otherwise.

Row | Binder | Trimeric HA Binding: RLU
15 | B5 | 26800 RLU
16 | B1 | 21200 RLU
17 | B2 | 19500 RLU
18 | B3 | 20000 RLU
19 | B6 | 26400 RLU

The binders below were run against recombinant soluble homotrimeric HA, A/Hong Kong/156/97 H5N1 (Influenza A virus A/Hong Kong/156/97 (H5N1)) (assay: microarray, transfection SN IgG, trimeric HA). Conditions: remark: other sources report otherwise.

Row | Binder | Trimeric HA Binding: RLU
20 | B5 | 955 RLU
21 | B1 | 36300 RLU
22 | B2 | 36300 RLU
23 | B3 | 36300 RLU
24 | B6 | 27100 RLU

Each binder was assayed against recombinant soluble homotrimeric HA, A/Indonesia/5/05 H5N1 (Influenza A virus A/Indonesia/5/2005(H5N1)) (assay: microarray, transfection SN IgG, trimeric HA). Conditions: remark: other sources report otherwise.

Row | Binder | Trimeric HA Binding: RLU
25 | B5 | 9000 RLU
26 | B1 | 43400 RLU
27 | B2 | 31200 RLU
28 | B3 | 33900 RLU
29 | B6 | 22200 RLU

These binders were tested against recombinant soluble homotrimeric HA, A/Japan/305/57 H2N2 (Influenza A virus A/Japan/305/1957(H2N2)) (assay: microarray, transfection SN IgG, trimeric HA). Conditions: remark: other sources report otherwise.

Row | Binder | Trimeric HA Binding: RLU
30 | B5 | 731 RLU
31 | B1 | 52000 RLU
32 | B2 | 39800 RLU
33 | B3 | 16700 RLU
34 | B6 | 27300 RLU

Each binder was assayed against recombinant soluble homotrimeric HA, A/Solomon Islands/3/06 H1N1 (Influenza A virus A/Solomon Islands/3/2006(H1N1)) (assay: microarray, transfection SN IgG, trimeric HA). Conditions: remark: other sources report otherwise.

Row | Binder | Trimeric HA Binding: RLU
35 | B5 | 758 RLU
36 | B1 | 48600 RLU
37 | B2 | 49600 RLU
38 | B3 | 44600 RLU
39 | B6 | 27000 RLU

What follows are binders tested against recombinant soluble homotrimeric HA, A/South Carolina/1/18 H1N1 (Influenza A virus A/South Carolina/1/18 (H1N1)) (assay: microarray, transfection SN IgG, trimeric HA). Conditions: remark: other sources report otherwise.

Row | Binder | Trimeric HA Binding: RLU
40 | B5 | 1010 RLU
41 | B1 | 37400 RLU
42 | B2 | 41300 RLU
43 | B3 | 48000 RLU
44 | B6 | 44900 RLU

What follows are binders tested against recombinant soluble homotrimeric HA, A/Vietnam/1203/04 H5N1 (Influenza A virus A/VietNam/1203/2004(H5N1)) (assay: microarray, transfection SN IgG, trimeric HA). Conditions: remark: other sources report otherwise.

Row | Binder | Trimeric HA Binding: RLU
45 | B5 | 41900 RLU
46 | B1 | 18500 RLU
47 | B2 | 19200 RLU
48 | B3 | 19300 RLU
49 | B6 | 21300 RLU

The binders below were run against recombinant soluble homotrimeric HA, A/Wisconsin/67/05 H3N2 (Influenza A virus A/Wisconsin/67/2005(H3N2)) (assay: microarray, transfection SN IgG, trimeric HA). Conditions: remark: other sources report otherwise.

Row | Binder | Trimeric HA Binding: RLU
50 | B5 | 37800 RLU
51 | B1 | 18500 RLU
52 | B2 | 25200 RLU
53 | B3 | 14700 RLU
54 | B6 | 46100 RLU

What follows are binders tested against recombinant soluble homotrimeric HA, A/chicken/Vietnam/NCVD-016/08 H5N1 (Influenza A virus A/chicken/Vietnam/NCVD-016/2008(H5N1)) (assay: microarray, transfection SN IgG, trimeric HA). Conditions: remark: other sources report otherwise.

Row | Binder | Trimeric HA Binding: RLU
55 | B5 | 1800 RLU
56 | B1 | 34500 RLU
57 | B2 | 34700 RLU
58 | B3 | 35200 RLU
59 | B6 | 23300 RLU

The binders below were run against recombinant soluble homotrimeric HA, A/duck/Yangzhou/02/05 H8N4 (Influenza A virus A/duck/Yangzhou/02/2005(H8N4)) (assay: microarray, transfection SN IgG, trimeric HA). Conditions: remark: other sources report otherwise.

Row | Binder | Trimeric HA Binding: RLU
60 | B5 | 4710 RLU
61 | B1 | 15900 RLU
62 | B2 | 12500 RLU
63 | B3 | 8540 RLU
64 | B6 | 24000 RLU

The binders below were run against recombinant soluble homotrimeric HA, A/northern shoveler/California/HKWF115/07 H6N4 (Influenza A virus A/northern shoveler/California/HKWF115/2007(H6N1)) (assay: microarray, transfection SN IgG, trimeric HA). Conditions: remark: other sources report otherwise.

Row | Binder | Trimeric HA Binding: RLU
65 | B5 | 2300 RLU
66 | B1 | 43900 RLU
67 | B2 | 32500 RLU
68 | B3 | 28700 RLU
69 | B6 | 49600 RLU

The binders below were run against recombinant soluble homotrimeric HA, A/swine/Ontario/01911-2/99 H4N6 (Influenza A virus A/Swine/Ontario/01911-2/99 (H4N6)) (assay: microarray, transfection SN IgG, trimeric HA). Conditions: remark: other sources report otherwise.

Row | Binder | Trimeric HA Binding: RLU
70 | B5 | 1700 RLU
71 | B1 | 9080 RLU
72 | B2 | 12200 RLU
73 | B6 | 41500 RLU

Each binder was assayed against recombinant homotrimeric HA A/duck/Yangzhou/02/05 H8N4 (Influenza A virus A/duck/Yangzhou/02/2005(H8N4)) (assay: protein microarray, purified IgG, trimeric HA). Conditions: remark: other sources report otherwise.

Row | Binder | Trimeric HA Binding: RLU
74 | B5 | 256 RLU
75 | B3 | 375 RLU
76 | B6 | 27200 RLU

The binders below were run against recombinant homotrimeric HA A/swine/Ontario/01911-2/99 H4N6 (Influenza A virus A/Swine/Ontario/01911-2/99 (H4N6)) (assay: protein microarray, purified IgG, trimeric HA). Conditions: remark: other sources report otherwise.

Row | Binder | Trimeric HA Binding: RLU
77 | B6 | 19200 RLU

What follows are binders tested against recombinant soluble homotrimeric HA of A/Anhui/1/05 (H5N1) (Influenza A virus A/Anhui/1/2005(H5N1)) (assay: trimeric HA microarray, transfection supernatant set 2). Conditions: remark: other sources report otherwise.

Row | Binder | Trimeric HA Binding: RLU
78 | B4 | 1570 RLU

What follows are binders tested against recombinant soluble homotrimeric HA of A/California/4/09 (H1N1) (Influenza A virus A/California/04/2009(H1N1)) in the same assay as above. Conditions: remark: other sources report otherwise.

Row | Binder | Trimeric HA Binding: RLU
79 | B4 | 21200 RLU

These binders were tested against T1, recombinant soluble homotrimeric HA of … in the same assay as above. Conditions: remark: other sources report otherwise.

Row | Binder | Trimeric HA Binding: RLU
80 | B4 | 23900 RLU

These binders were tested against recombinant soluble homotrimeric HA of A/Indonesia/5/05 (H5N1) (Influenza A virus A/Indonesia/5/2005(H5N1)) in the same assay as above. Conditions: remark: other sources report otherwise.

Row | Binder | Trimeric HA Binding: RLU
81 | B4 | 47300 RLU

Each binder was assayed against recombinant soluble homotrimeric HA of A/Japan/305/57 (H2N2) (Influenza A virus A/Japan/305/1957(H2N2)) in the same assay as above. Conditions: remark: other sources report otherwise.

Row | Binder | Trimeric HA Binding: RLU
82 | B4 | 11200 RLU

The binders below were run against recombinant soluble homotrimeric HA of A/Netherlands/219/03 (H7N7) (Influenza A virus A/Netherlands/219/03(H7N7)) in the same assay as above. Conditions: remark: other sources report otherwise.

Row | Binder | Trimeric HA Binding: RLU
83 | B4 | 5420 RLU

The binders below were run against recombinant soluble homotrimeric HA of A/Solomon Islands/3/06 (H1N1) (Influenza A virus A/Solomon Islands/3/2006(H1N1)) in the same assay as above. Conditions: remark: other sources report otherwise.

Row | Binder | Trimeric HA Binding: RLU
84 | B4 | 26500 RLU

The binders below were run against recombinant soluble homotrimeric HA of A/South Carolina/1/18 (H1N1) (Influenza A virus A/South Carolina/1/18 (H1N1)) in the same assay as above. Conditions: remark: other sources report otherwise.

Row | Binder | Trimeric HA Binding: RLU
85 | B4 | 17800 RLU

These binders were tested against recombinant soluble homotrimeric HA of A/Vietnam/1203/04 (H5N1) (Influenza A virus A/VietNam/1203/2004(H5N1)) in the same assay as above. Conditions: remark: other sources report otherwise.

Row | Binder | Trimeric HA Binding: RLU
86 | B4 | 31500 RLU

The binders below were run against recombinant soluble homotrimeric HA of A/chicken/Vietnam/NCVD-016/08 (H5N1) (Influenza A virus A/chicken/Vietnam/NCVD-016/2008(H5N1)) in the same assay as above. Conditions: remark: other sources report otherwise.

Row | Binder | Trimeric HA Binding: RLU
87 | B4 | 36300 RLU
